Test results as given in patent publication US20250320292A1.

Biological target: COL4A3 (immobilised as Fc-rat COL4A3 or COL4A3-His)
Experiment: BLI (Octet RED96); COL4A3 immobilised (Fc-rat COL4A3 on anti-human Fc or COL4A3-His on HIS1K, not said which), test article titrated from 50 nM

B1: CDAB14 (scFv)
chain: DCGPPPDIPNARPILGRHSKFAEQSKVAYSCNNGFKQVPDKSNIVVCLENGQWSSHETFCEKSCVAPERLSFASLKKEYLNMNFFPVGTIVEYECRPGFRKQPPLPGKATCLEDLVWSPVAQFCKKKSCPNPKDLDNGHINIPTGILFGSEINFSCNPGYRLVGVSSTFCSVTGNTVDWDDEFPVCTEIHCPEPPKINNGIMRGESDSYTYSQVVTYSCDKGFILVGNASIYCTVSKSDVGQWSSPPPRCIEKSKVPTKKPTINVPSTGTPSTPQKPTTESVPNPGDQPTPQKPSTVKVSATQHVPVTKTTVRHPIRTSTDKGEPNTGGGGGSGGGGSGGGGSGGGGSQVQLLESGPGLVKPSGTLSLTCTVSGGSISSTNWWTWVRQSPGTGLEWIGHIYHSGSTDYNPSLKSRVTISIDKSKNQFSLKMTSVTAADTAVYYCACAAQYHWKGLDPWGHGTLVTVSSGGGGGSGGGGSGGGGSDIVMTQTPLSLSVTPGQPASISCMSSQSLLHSDGKTYLYWYLQKPGQPPQLLIYEVSNRFSGVPDRFSGSGSGTDFTLKISRVEAEDVGIYYCMQSIQLPITFGQGTRLEIKHHHHHH
Kd: 23 µM
